These results are taken from paper PMC3988174.

Test [1] concerns the target atToc159 G-domain bait (Arabidopsis thaliana) (UniProt O81283). In words: two-hybrid; pairwise split-ubiquitin yeast two-hybrid of isolated NubG-preys with Toc159G, Toc132G or Toc132AG bait in NMY51; growth on SD-LWHA (3-AT) and quantitative β-Gal assay, activity relative to a reference bait set to 100%.
Test [2] has as its target atToc132 G-domain bait (Arabidopsis thaliana) (UniProt Q9SLF3). Described as above.

Sequence of atToc159 G-domain bait (Arabidopsis thaliana) (O81283 728-1092): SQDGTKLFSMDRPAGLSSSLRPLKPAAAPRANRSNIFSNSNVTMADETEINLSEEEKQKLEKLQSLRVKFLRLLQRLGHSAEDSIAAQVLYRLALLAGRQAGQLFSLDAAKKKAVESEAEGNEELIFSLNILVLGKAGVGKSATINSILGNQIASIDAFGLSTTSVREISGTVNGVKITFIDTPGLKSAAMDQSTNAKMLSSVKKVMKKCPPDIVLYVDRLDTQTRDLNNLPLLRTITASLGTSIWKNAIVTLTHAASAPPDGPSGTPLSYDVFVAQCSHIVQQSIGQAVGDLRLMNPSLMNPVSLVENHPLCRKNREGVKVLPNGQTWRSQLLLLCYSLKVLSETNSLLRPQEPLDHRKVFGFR
Sequence of atToc132 G-domain bait (Arabidopsis thaliana) (Q9SLF3 456-794): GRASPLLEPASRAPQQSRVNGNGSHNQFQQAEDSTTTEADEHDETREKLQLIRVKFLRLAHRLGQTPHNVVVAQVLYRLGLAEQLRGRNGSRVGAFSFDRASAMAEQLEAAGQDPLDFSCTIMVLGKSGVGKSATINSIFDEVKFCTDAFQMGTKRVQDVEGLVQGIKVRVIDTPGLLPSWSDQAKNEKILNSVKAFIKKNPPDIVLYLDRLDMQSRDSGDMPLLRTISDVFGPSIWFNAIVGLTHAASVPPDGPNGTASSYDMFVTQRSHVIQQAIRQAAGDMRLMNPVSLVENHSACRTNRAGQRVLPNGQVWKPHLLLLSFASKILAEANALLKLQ

B1: Photosystem II subunit X (natural protein)
chain: MASTSAMSLVTPLNQTRSSPFLKPLPLKPSKALVATGGRAQRLQVKALKMDKALTGISAAALTASMVIPEIAEAAGSGISPSLKNFLLSIASGGLVLTVIIGVVVGVSNFDPVKRT
For B1, the % increase in strength of interaction (β-Gal) with Toc159G against Toc132G in test [1] stood at 24%.

B2: Protochlorophyllide oxidoreductase B (natural protein)
chain: MALQAASLVSSAFSVRKDAKLNASSSSFKDSSLFGASITDQIKSEHGSSSLRFKREQSLRNLAIRAQTAATSSPTVTKSVDGKKTLRKGNVVVTGASSGLGLATAKALAETGKWNVIMACRDFLKAERAAKSVGMPKDSYTVMHLDLASLDSVRQFVDNFRRTETPLDVLVCNAAVYFPTAKEPTYSAEGFELSVATNHLGHFLLARLLLDDLKKSDYPSKRLIIVGSITGNTNTLAGNVPPKANLGDLRGLAGGLNGLNSSAMIDGGDFDGAKAYKDSKVCNMLTMQEFHRRFHEETGVTFASLYPGCIASTGLFREHIPLFRALFPPFQKYITKGYVSETESGKRLAQVVSDPSLTKSGVYWSWNNASASFENQLSEEASDVEKARKVWEISEKLVGLA
On to B2, for which, in test [1], the % increase in strength of interaction (β-Gal) with Toc159G against Toc132G was 40.5%.

B3: Light-Harvesting Chlorophyll-Protein Complex I Subunit A4 (natural protein)
chain: MATVTTHASASIFRPCTSKPRFLTGSSGRLNRDLSFTSIGSSAKTSSFKVEAKKGEWLPGLASPDYLTGSLAGDNGFDPLGLAEDPENLKWFVQAELVNGRWAMLGVAGMLLPEVFTKIGIINVPEWYDAGKEQYFASSSTLFVIEFILFHYVEIRRWQDIKNPGSVNQDPIFKQYSLPKGEVGYPGGIFNPLNFAPTQEAKEKELANGRLAMLAFLGFVVQHNVTGKGPFENLLQHLSDPWHNTIVQTFN
In the case of B3, the % decrease in strength of interaction (β-Gal) with Toc159G against Toc132G in test [1] was -38.5%.

B4: Ferredoxin-thioredoxin reductase subunit A (natural protein)
chain: MNLQAVSCSFGFLSSPLGVTPRTSFRRFVIRAKTEPSEKSVEIMRKFSEQYARRSGTYFCVDKGVTSVVIKGLAEHKDSYGAPLCPCRHYDDKAAEVGQGFWNCPCVPMRERKECHCMLFLTPDNDFAGKDQTITSDEIKETTANM
Take B4: in test [2], the % increase in strength of interaction (β-Gal) with 132G against 159G is 45.2%.
